The data set deals with the molecule itself. In words: cryo-EM structure; 150 nM biotinylated dynein^E2488Q, 650 nM Lis1, 1.2 mM ATP, 1.2 mM Na3VO4, on streptavidin affinity grids; 4.1 Å map (C2), 3.6 Å after symmetry expansion.

B1: S. cerevisiae Lis1 (Pac1) (natural protein)
chain: MTNWQQQLPLTDTQKNELDKSVLRYLNWNYKQTVRHEHAQDYESVRHAIVTLSGFLLQESVDRQEFISNNDTSNESMVDIDELLLPKKWNSIVRLQKKIIELEQNTETLVSQIKDLNTQVSELAQFKPTTSNGTSAHNVLKWIPRNLPSCLINVESSVTSVKLHPNLPIVFVATDHGKLYAFDLFNYTIPLASLQSHTKAITSMDVLFTNYTNSSKKNYLVIVTASKDLQIHVFKWVSEECKFQQIRSLLGHEHIVSAVKIWQKNNDVHIASCSRDQTVKIWDFHNGWSLKTFQPHSQWVRSIDVLGDYIISGSHDTTLRLTHWPSGNGLSVGTGHEFPIEKVKFIHFIEDSPEIRFRTPSTDRYKNWGMQYCVSASRDRTIKIWEIPLPTLMAHRAPIPNPTDSNFRCVLTLKGHLSWVRDISIRGQYLFSCADDKSVRCWDLNTGQCLHVWEKLHTGFVNCLDLDVDFDSNVTPRQMMVTGGLDCKSNVFMR
notes: Lis1 (Pac1), S. cerevisiae; a dimer; only the β-propellers are spoken of in the structure; also called yeast Lis1; source: S. cerevisiae, purified (Ni-NTA, IgG Sepharose, TEV cleavage)
Consider B1, for which the binding result is recorded as “binds”.
